# Source: patent US20250361274A1, “PEPTIDE AND PEPTIDE-CONTAINING AGENT” (PEPTIDREAM INC., priority 2022, published 2025)
# Numbered stars: 1 amine (or outer) side, 2 acyl side, 3 side chain; on linkers, the order of the positions; unused ones are H or OH. Bridge positions count the residues as written; N and C are the ends. Square brackets hold non-standard residues; d marks the D form. Ends that are not written are not given here. KCOpipzaa = N6-(4-(carboxymethyl)piperazine-1-carbonyl)-L-lysine, O=C(NCCCC[C@H](N[*:1])C(=O)[*:2])N1CCN(CC(=O)[*:3])CC1; 3Pal(6-Ph) = N[C@@H](Cc1ccc(-c2ccccc2)nc1)C(=O)O; Phe(4-COOH) = N[C@@H](Cc1ccc(C(=O)O)cc1)C(=O)O; Bip = N[C@@H](Cc1ccc(-c2ccccc2)cc1)C(=O)O; 4Pal = N[C@@H](Cc1ccncc1)C(=O)O
# Key:
# BMP7 = biological target: T1, BMP7 (Homo sapiens, UniProt P18075); assay: BMP7 signal transduction inhibitory activity: SMAD1 phosphorylation by BMP7 stimulus, A549 cells; type: cell-based; conditions: A549 cells, 10 nM BMP7; peptides of Synthesis 2; peptide 1, 10, 100 nM
# T1 sequence (P18075 293-431): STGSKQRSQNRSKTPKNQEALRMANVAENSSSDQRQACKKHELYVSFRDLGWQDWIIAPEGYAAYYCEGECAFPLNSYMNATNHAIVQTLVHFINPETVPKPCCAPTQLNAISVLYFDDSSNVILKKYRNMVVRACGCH
# Description: In the present Example, BMP7 signal transduction inhibitory activity of each peptide consisting of an amino acid sequence set forth in any of SEQ ID NOs: 5 to 240 and 243 to 421 synthesized in Example 10 was verified by phosphorylation of SMAD1 caused by BMP7 stimulus. The evaluation was performed using 10 nM of BMP7 instead of BMP 4. Regarding SEQ ID NOs: 5 to 240, the concentrations of the peptides synthesized in the same manner as in Example 2 (shown as 2 in the row of Synthesis) were 1 nM, 10 nM, and 100 nM, and the concentrations of the peptides synthesized in the same manner as in Example 1 (shown as 1 in the row of Synthesis) were 10 nM, 100 nM, and 1,000 nM, similarly with Example 11. […] Regarding SEQ ID NOs: 243 to 273 and SEQ ID NOs: 299 to 321, the test was performed at the concentrations (10, 100, 1,000 nM) described in Table 6. […] Regarding SEQ ID NOs: 274 to 298, the test was performed at the concentrations (100, 300, 1,000 nM) described in Table 6. […] Regarding SEQ ID NOs: 322 to 370 and SEQ ID NOs: 393 to 421, the test was performed at the concentrations (1, 10, 100 nM). […] Regarding SEQ ID NOs: 371 to 391, the test was performed at the concentrations (10, 30, 90 nM). […] The evaluation tests of the signal transduction inhibitory activities of SEQ ID NOs: 87, 177, and 181 are as follows. Specifically, the inhibitory activity of BMP4 was evaluated in the same manner as in Example 11 that used A549 cells. Eight concentrations of the peptides were used at a common ratio of 1/3 starting from 2 nM. The inhibitory activity of BMP7 was evaluated in the same manner as in Example 12. Eight concentrations of the peptides were used at a common ratio of 1/3 starting from 100 nM. Note that recombinant Human Noggin Protein (R&D) as a positive control was used at the same concentration as that of the peptide. […] The inhibitory activity of BMP7 was evaluated using eight concentrations of the peptides at a common ratio of 1/3 starting from 1,000 nM in the same manner as in Example 12.
# BMP4 = biological target: T2, BMP4 (Homo sapiens, UniProt P12644); assay: BMP4 signal transduction inhibitory activity: SMAD1 phosphorylation by BMP4 stimulus, AlphaLISA SureFire, A549 cells; type: cell-based; conditions: A549 cells, SMAD1 phosphorylation; peptides of Synthesis 2; peptide 0.02, 0.2, 2 nM
# T2 sequence (P12644 293-408): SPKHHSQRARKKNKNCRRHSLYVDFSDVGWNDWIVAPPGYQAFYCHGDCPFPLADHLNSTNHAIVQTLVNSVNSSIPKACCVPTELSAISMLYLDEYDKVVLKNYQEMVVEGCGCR
# Description: In the present Example, a BMP4 signal transduction inhibitory activity of each peptide consisting of an amino acid sequence set forth in any of SEQ ID NOs: 5 to 240 and 243 to 421 synthesized in Example 10 was verified by phosphorylation of SMAD1 caused by BMP4 stimulus. A549 cells were cultured in MEM (Thermo Fisher Scientific) containing 10% FBS (Thermo Fisher Scientific), 1×Non-essential amino acids (Thermo Fisher Scientific), and 50 μg/mL Gentamicin. After TrypLE (Gibco) was used to peel the cells, seeding was performed in a 96-well plate for adhesion cells so that the number of cells would be 20,000 per well, followed by culturing for 48 hours. After the cells were cultured as described above, the culture medium was replaced with a peptide solution or recombinant Human Noggin Protein (R&D) solution as a positive control diluted to various concentrations in a nutrition-starved culture medium containing 0.1% BSA (Sigma) instead of FBS Thirty minutes after culturing, […], to stimulate it for 60 minutes. The culture medium was removed and the cells were lysed with Lysis Buffer provided with AlphaLISA (registered trademark) SureFire (registered trademark) Ultra SMAD1 (p-[…]/465) Assay kit (PerkinElmer). According to the protocol of the kit, a signal was detected using SpectraMax (registered trademark) Paradigm (registered trademark) multimode microplate reader (Molecular Devices). The obtained signal was analysed using GraphPad Prism (GraphPad Software). The % inhibition was calculated by considering non-stimulation as 100% inhibition and BMP stimulation only as 0% inhibition. Regarding SEQ ID NOs: 5 to 187, the concentrations of the peptides synthesized in the same manner as in Example 2 (shown as 2 in the row of Synthesis) were 0.02 nM, 0.2 nM, and 2 nM, and the concentrations of the peptides synthesized in the same manner as in Example 1 (shown as 1 in the row of Synthesis) were 0.2 nM, 2 nM, and 20 nM. The evaluation results were based on the results of evaluation using the peptides synthesized in the same manner as in Example 2. […] Regarding SEQ ID NOs: 243 to 321, the test was performed at the concentrations described in Table 6. […] Regarding SEQ ID NOs: 322 to 421, the test was performed at the concentrations described in Table 7. […] The evaluation tests of the signal transduction inhibitory activities of SEQ ID NOs: 87, 177, and 181 are as follows. Specifically, the inhibitory activity of BMP4 was evaluated in the same manner as in Example 11 that used A549 cells. Eight concentrations of the peptides were used at a common ratio of 1/3 starting from 2 nM. The inhibitory activity of BMP7 was evaluated in the same manner as in Example 12. Eight concentrations of the peptides were used at a common ratio of 1/3 starting from 100 nM. Note that recombinant Human Noggin Protein (R&D) as a positive control was used at the same concentration as that of the peptide. […] The inhibitory activity of BMP7 was evaluated using eight concentrations of the peptides at a common ratio of 1/3 starting from 1,000 nM in the same manner as in Example 12.
substance,measurement,setting,value
17 ({CH2CO}-ARVYVDR[Bip]GYP[Bip]Y[Phe(4-COOH)][Phe(4-COOH)]SCG-NH2; thioether N-17; not fully specified) [compound 17],aLISA BMP7,BMP7,C (showed less than 50% of inhibitory activity in 10 nM-addition zone and showed 50% or more of inhibitory activity in 100 nM-addition zone)
same,aLISA BMP4,BMP4,A (showed an inhibitory activity of 50% or more in a zone to which the peptide was added to in an amount of 0.2 nM)
18 ({CH2CO}-ARVYVDR[Bip]SYP[Bip]Y[Phe(4-COOH)][Phe(4-COOH)]SCG-NH2; thioether N-17; not fully specified) [compound 18],aLISA BMP7,BMP7,C (showed less than 50% of inhibitory activity in 10 nM-addition zone and showed 50% or more of inhibitory activity in 100 nM-addition zone)
same,aLISA BMP4,BMP4,A (showed an inhibitory activity of 50% or more in a zone to which the peptide was added to in an amount of 0.2 nM)
22 ({CH2CO}-ARVYVKR[Bip][KCOpipzaa]YP[Bip]Y[Phe(4-COOH)][Phe(4-COOH)]SCG-NH2; thioether N-17; not fully specified) [compound 22],aLISA BMP7,BMP7,C (showed less than 50% of inhibitory activity in 10 nM-addition zone and showed 50% or more of inhibitory activity in 100 nM-addition zone)
same,aLISA BMP4,BMP4,A (showed an inhibitory activity of 50% or more in a zone to which the peptide was added to in an amount of 0.2 nM)
24 ({CH2CO}-A[KCOpipzaa]VYV[KCOpipzaa]R[Bip]PYP[Bip]Y[Phe(4-COOH)][Phe(4-COOH)]SCG-NH2; thioether N-17; not fully specified) [compound 24],aLISA BMP7,BMP7,C (showed less than 50% of inhibitory activity in 10 nM-addition zone and showed 50% or more of inhibitory activity in 100 nM-addition zone)
same,aLISA BMP4,BMP4,A (showed an inhibitory activity of 50% or more in a zone to which the peptide was added to in an amount of 0.2 nM)
29 ({CH2CO}-ARVYVDR[3Pal(6-Ph)]PYP[Bip]Y[Phe(4-COOH)][Phe(4-COOH)]SCG-NH2; thioether N-17; not fully specified) [compound 29],aLISA BMP7,BMP7,ND (the inhibitory activity was less than 30% at the maximum concentration evaluated)
same,aLISA BMP4,BMP4,A (showed an inhibitory activity of 50% or more in a zone to which the peptide was added to in an amount of 0.2 nM)
"32 (ARVYVDR[3Pal(6-Ph)]PYP[3Pal(6-Ph)]Y[Phe(4-COOH)][Phe(4-COOH)]SCG-NH2; not fully specified (N-terminus, bridges)) [compound 32]",aLISA BMP7,BMP7,ND (the inhibitory activity was less than 30% at the maximum concentration evaluated)
same,aLISA BMP4,BMP4,A (showed an inhibitory activity of 50% or more in a zone to which the peptide was added to in an amount of 0.2 nM)
33 ({CH2CO}-ARVYVDR[3Pal(6-Ph)]PYP[3Pal(6-Ph)][4Pal][Phe(4-COOH)][Phe(4-COOH)]SCG-NH2; thioether N-17; not fully specified) [compound 33],aLISA BMP7,BMP7,ND (the inhibitory activity was less than 30% at the maximum concentration evaluated)
same,aLISA BMP4,BMP4,C (showed an inhibitory activity of less than 50% in 0.2 nM-addition zone and showed an inhibitory activity of 50% or more in 2 nM-addition zone were defined as B or C)
34 ({CH2CO}-AKVYVDH[Bip]PYP[Bip]Y[Phe(4-COOH)][Phe(4-COOH)]SCG-NH2; thioether N-17; not fully specified) [compound 34],aLISA BMP7,BMP7,C (showed less than 50% of inhibitory activity in 10 nM-addition zone and showed 50% or more of inhibitory activity in 100 nM-addition zone)
same,aLISA BMP4,BMP4,A (showed an inhibitory activity of 50% or more in a zone to which the peptide was added to in an amount of 0.2 nM)
35 ({CH2CO}-AKVYVDK[Bip]PYP[Bip]Y[Phe(4-COOH)][Phe(4-COOH)]SCG-NH2; thioether N-17; not fully specified) [compound 35],aLISA BMP7,BMP7,ND (the inhibitory activity was less than 30% at the maximum concentration evaluated)
same,aLISA BMP4,BMP4,A (showed an inhibitory activity of 50% or more in a zone to which the peptide was added to in an amount of 0.2 nM)
36 ({CH2CO}-AKVYV[KCOpipzaa]K[Bip]PYP[Bip]Y[Phe(4-COOH)][Phe(4-COOH)]SCG-NH2; thioether N-17; not fully specified) [compound 36],aLISA BMP7,BMP7,ND (the inhibitory activity was less than 30% at the maximum concentration evaluated)
same,aLISA BMP4,BMP4,A (showed an inhibitory activity of 50% or more in a zone to which the peptide was added to in an amount of 0.2 nM)
37 ({CH2CO}-AK(Ac)VYVDK[Bip]PYP[Bip]Y[Phe(4-COOH)][Phe(4-COOH)]SCG-NH2; thioether N-17; not fully specified) [compound 37],aLISA BMP7,BMP7,ND (the inhibitory activity was less than 30% at the maximum concentration evaluated)
same,aLISA BMP4,BMP4,A (showed an inhibitory activity of 50% or more in a zone to which the peptide was added to in an amount of 0.2 nM)
38 ({CH2CO}-A[KCOpipzaa]VYVDK[Bip]PYP[Bip]Y[Phe(4-COOH)][Phe(4-COOH)]SCG-NH2; thioether N-17; not fully specified) [compound 38],aLISA BMP7,BMP7,ND (the inhibitory activity was less than 30% at the maximum concentration evaluated)
same,aLISA BMP4,BMP4,A (showed an inhibitory activity of 50% or more in a zone to which the peptide was added to in an amount of 0.2 nM)
39 ({CH2CO}-AQVYVDK[Bip]PYP[Bip]Y[Phe(4-COOH)][Phe(4-COOH)]SCG-NH2; thioether N-17; not fully specified) [compound 39],aLISA BMP7,BMP7,ND (the inhibitory activity was less than 30% at the maximum concentration evaluated)
same,aLISA BMP4,BMP4,C (showed an inhibitory activity of less than 50% in 0.2 nM-addition zone and showed an inhibitory activity of 50% or more in 2 nM-addition zone were defined as B or C)
40 ({CH2CO}-ASVYVDK[Bip]PYP[Bip]Y[Phe(4-COOH)][Phe(4-COOH)]SCG-NH2; thioether N-17; not fully specified) [compound 40],aLISA BMP7,BMP7,ND (the inhibitory activity was less than 30% at the maximum concentration evaluated)
same,aLISA BMP4,BMP4,D (showed inhibitory activity of less than 50% in 2 nM-addition zone)
